The target in data set [1] is T1, tOmpA, the 8-stranded transmembrane domain of OmpA (UniProt P0A910 22-197).
T1 sequence: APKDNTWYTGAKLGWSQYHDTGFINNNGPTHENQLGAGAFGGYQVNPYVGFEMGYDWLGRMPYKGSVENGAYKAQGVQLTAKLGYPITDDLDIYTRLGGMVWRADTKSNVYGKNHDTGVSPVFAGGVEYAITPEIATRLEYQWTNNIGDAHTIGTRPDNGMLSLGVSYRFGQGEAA
Briefly: native MS.

The next data set has as its target T2, PagP (UniProt P37001 26-186).
T2 sequence (looked up): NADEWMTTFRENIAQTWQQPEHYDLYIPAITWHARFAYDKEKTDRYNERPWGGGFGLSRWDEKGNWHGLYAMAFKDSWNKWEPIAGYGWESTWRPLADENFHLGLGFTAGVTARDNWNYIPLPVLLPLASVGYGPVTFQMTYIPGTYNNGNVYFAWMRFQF
Briefly: native MS.

For another data set, the target named is T3, OmpT (E. coli, UniProt P09169 21-317).
T3 sequence (looked up): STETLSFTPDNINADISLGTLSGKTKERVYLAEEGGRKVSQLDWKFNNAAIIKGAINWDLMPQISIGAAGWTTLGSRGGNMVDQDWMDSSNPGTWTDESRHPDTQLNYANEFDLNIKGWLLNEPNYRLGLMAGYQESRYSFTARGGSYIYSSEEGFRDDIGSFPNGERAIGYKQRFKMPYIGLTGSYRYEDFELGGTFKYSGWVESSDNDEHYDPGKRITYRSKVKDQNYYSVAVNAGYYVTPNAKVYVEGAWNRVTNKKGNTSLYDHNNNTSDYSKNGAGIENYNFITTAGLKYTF
Briefly: native MS.

The next data set concerns the target T4, OmpF (UniProt P02931 23-362).
T4 sequence (looked up): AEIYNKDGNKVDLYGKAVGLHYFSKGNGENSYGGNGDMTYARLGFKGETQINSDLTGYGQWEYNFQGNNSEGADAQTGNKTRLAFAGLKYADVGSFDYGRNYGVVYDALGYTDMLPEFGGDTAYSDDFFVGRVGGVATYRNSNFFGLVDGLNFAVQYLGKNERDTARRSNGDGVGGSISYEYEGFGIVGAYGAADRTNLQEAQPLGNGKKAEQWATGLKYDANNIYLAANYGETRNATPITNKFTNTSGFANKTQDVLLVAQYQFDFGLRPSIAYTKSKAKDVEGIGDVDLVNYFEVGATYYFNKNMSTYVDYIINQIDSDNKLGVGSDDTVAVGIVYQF
Briefly: native MS.

The target of data set [2] is tBamA, the 16-stranded transmembrane domain of the BamA OMP insertase (UniProt P0A940 425-810). Briefly: native MS.
The data set “native MS” deals with the molecule itself. Briefly: native MS.
Another data set deals with T5, full-length OmpA (UniProt P0A910 22-346).
T5 sequence (looked up): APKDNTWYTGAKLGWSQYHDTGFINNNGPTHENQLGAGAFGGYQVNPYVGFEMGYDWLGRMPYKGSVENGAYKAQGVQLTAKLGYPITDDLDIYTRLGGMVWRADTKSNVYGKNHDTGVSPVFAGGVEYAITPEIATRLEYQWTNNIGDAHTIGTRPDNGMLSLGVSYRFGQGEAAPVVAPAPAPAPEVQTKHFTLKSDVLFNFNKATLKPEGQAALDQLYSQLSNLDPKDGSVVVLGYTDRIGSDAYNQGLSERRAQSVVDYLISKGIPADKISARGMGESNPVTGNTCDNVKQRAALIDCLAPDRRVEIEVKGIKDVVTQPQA
Briefly: cross-linking.

A further data set addresses full-length BamA (UniProt P0A940 21-810). Briefly: cross-linking.

“And” between values parts separate entries of the source, which are not always exact repeats. Identical values can stand only once.

B1: Skp (natural protein, Escherichia coli, UniProt P0AEU7 21-161, looked up)
chain: ADKIAIVNMGSLFQQVAQKTGVSNTLENEFKGRASELQRMETDLQAKMKKLQSMKAGSDRTKLEKDVMAQRQTFAQKAQAFEQDRARRSNEERGKLVTRIQTAVKSVANSQDIDLVVDANAVAYNSSDVKDITADVLKQVK
For B1, the “stoichiometry N” value is 1 Skp (trimer) per OMP in data set [1]; 1 Skp (trimer) per OMP with PagP; ≤ 2 Skp (trimer) per OMP and 1 Skp (trimer) per OMP with OmpT; 1 Skp (trimer) per OMP and ≤ 2 Skp (trimer) per OMP in the data set with OmpF; 1 Skp (trimer) per OMP and ≤ 2 Skp (trimer) per OMP in data set [2]. Besides, the binding result in “native MS” was “binds”.

B2: His-tagged Skp (natural protein, Escherichia coli)
chain: B1 chain
For the molecule B2, the “stoichiometry N” value with full-length OmpA is 1 Skp (trimer) per OMP; with full-length BamA it was 2 Skp (trimer) per OMP.

Broadly, the stoichiometry N is the number of molecules, sites or subunits per partner or assembly.
